Test results reported in patent US20160279221A1.

Target: AMA1 on P. falciparum 3D7 strain parasites (Plasmodium falciparum)
Experiment: cell-based or functional assay

For rat mAb 4G2dc1 (antibody), the IC30 concentration (30% inhibition against the 3D7 target parasites, GIA) was 1800 µg/mL and the Inhibition (GIA at 1 mg/ml against the 3D7 target strain) was 22%.
